Measured values as given in patent US20140179896A1 (published 2014).
Substitutions are numbered along the chain they refer to.

B1: 2′E4-PR4 (designed binder)
chain: VSDVPRDLEVVAATPTSLLISWRHPHFPTRYYRITYGETGGNSPVQEFTVPLQPPTATISGLKPGVDYTITGYAVTVHWNGHELMTPISINYRT
notes: WT N-terminus
B2: 2′D6-PR4 (designed binder)
chain: B1 chain with H78T, W79H, E83P
notes: WT N-terminus
B3: 2′C6-PR4 (designed binder)
chain: B1 chain with V77M, H78G, W79F, N80M, G81A, T86V
notes: WT N-terminus
B4: 2′H4-PR4 (designed binder)
chain: B1 chain with H78G, W79P, G81E, H82R, E83M
notes: WT N-terminus
B5: 4′C9 PR4 (designed binder)
chain: EVVAATPTSLLISWRHPHFPTRYYRITYGETGGNSPVQEFTVPLQPPTATISGLKPGVDYTITGYAVTLGPNDHELMTPISINYRT
notes: Del 1-8
B6: 3′D8 PR4 (designed binder)
chain: B5 chain with L69A, E75Q, M77F
notes: Del 1-8
B7: 4F4 PR3 (designed binder)
chain: B5 chain with G70A, P71Q, H74R, M77I
notes: Del 1-8
B8: 4′G4 PR4 (designed binder)
chain: B5 chain with L69V, G70A, P71Q, H74R, M77L
notes: Del 1-8
B9: 4′B7 PR4 (designed binder)
chain: B5 chain with L69V, G70A, P71Q, D73N, M77L
notes: Del 1-8
B10: 3′D9 PR4 (designed binder)
chain: B5 chain with L69G, G70Y, P71Y, H74R, M77L
notes: Del 1-8
B11: 3′E9 PR4 (designed binder)
chain: B5 chain with L69V, G70E, P71Q, N72D, D73G, E75V, M77Y, T78I
notes: Del 1-8
B12: 4B11 PR3 (designed binder)
chain: B5 chain with L69V, P71Q, D73N, M77I
notes: Del 1-8
B13: 3′F9 PR4 (designed binder)
chain: B5 chain with H74R
notes: Del 1-8
B14: 4′C5 PR4 (designed binder)
chain: B5 chain with P71L, M77I
notes: Del 1-8
B15: 3′G10 PR4 (designed binder)
chain: B5 chain with G70T, P71H, M77L
notes: Del 1-8
B16: 4′E7 PR4 (designed binder)
chain: B5 chain with L69W, G70A, P71Q, M77L
notes: Del 1-8
B17: 4′H12 PR4 (designed binder)
chain: B5 chain with L69V, G70A, P71H, M77L
notes: Del 1-8
B18: 3′G1 PR4 (designed binder)
chain: B5 chain with G70A, P71L, D73G, M77F
notes: Del 1-8
B19: 4′G12 PR4 (designed binder)
chain: B5 chain with L69V, G70A, P71W, L76I, M77Y
notes: Del 1-8
B20: 4′H5 PR4 (designed binder)
chain: B5 chain with G70A, P71Q, D73G, M77F
notes: Del 1-8
B21: 3′H3 PR4 (designed binder)
chain: B5 chain with P71L, H74R
notes: Del 1-8
B22: 3′E5 PR4 (designed binder)
chain: B5 chain with L69V, G70A, P71W, N72D, D73G, H74R, M77F
notes: Del 1-8
B23: 3′G2 PR4 (designed binder)
chain: B5 chain with G70A, P71Q, D73G, M77I
notes: Del 1-8
B24: 3′E3 PR4 (designed binder)
chain: B5 chain with L69M, G70A, P71Q, N72Y, D73G, H74R, M77L
notes: Del 1-8
B25: 4′H7 PR4 (designed binder)
chain: B5 chain with G70A, P71H, M77L
notes: Del 1-8
B26: 3′H9 PR4 (designed binder)
chain: B5 chain with L69H, N72Y, H74Q, E75V, M77L
notes: Del 1-8
B27: 3′E1 PR4 (designed binder)
chain: B5 chain with L69V, G70A, D73G, M77F
notes: Del 1-8
B28: 3′F2 PR4 (designed binder)
chain: B5 chain with P71K, M77L
notes: Del 1-8
B29: 3′G7 PR4 (designed binder)
chain: B5 chain with L69E, P71Q, H74Q, E75L, M77F, T78I
notes: Del 1-8
B30: 3′H1 PR4 (designed binder)
chain: B5 chain with L69F, G70A, P71Q, E75Q, M77F
notes: Del 1-8
B31: 4C9 PR3 (designed binder)
chain: B5 chain with G70A, P71Q, M77L
notes: Del 1-8
B32: 4′D6 PR4 (designed binder)
chain: B5 chain with L69M, G70A, P71Q
notes: Del 1-8
B33: 3′G3 PR4 (designed binder)
chain: B5 chain with L69F, G70D, P71Q, N72S, M77L
notes: Del 1-8
B34: 3′F6 PR4 (designed binder)
chain: B5 chain with L69I, G70E, P71Q, N72S, D73G, H74L, E75Q
notes: Del 1-8
B35: 4′B8 PR4 (designed binder)
chain: B5 chain with L69V, G70A, P71Q, E75K, M77F, T78I
notes: Del 1-8
B36: 4H5 PR3 (designed binder)
chain: B5 chain with L69V, G70A, P71Q, D73G, M77I
notes: Del 1-8
B37: 4′B11 PR4 (designed binder)
chain: B5 chain with L69M, G70A, P71H, M77L
notes: Del 1-8
B38: 3′H10 PR4 (designed binder)
chain: B5 chain with L69W, G70A, P71W
notes: Del 1-8
B39: 3′H11 PR4 (designed binder)
chain: B5 chain with G70A, P71H, D73G, H74N, M77L
notes: Del 1-8
B40: 3′E11 PR4 (designed binder)
chain: B5 chain with L69V, N72H, H74R, M77L
notes: Del 1-8
B41: 3′F3 PR4 (designed binder)
chain: B5 chain with P71H, H74R, M77L
notes: Del 1-8
B42: 4′A5 PR4 (designed binder)
chain: B5 chain with G70A, P71Q, M77L
notes: Del 1-8
B43: 4′B3 PR4 (designed binder)
chain: B5 chain with L69M, G70A, P71Q, D73N, H74R, M77L
notes: Del 1-8
B44: 4′D8 PR4 (designed binder)
chain: B5 chain with G70A, P71Q, D73G, M77Y
notes: Del 1-8
B45: 3′H8 PR4 (designed binder)
chain: B5 chain with L69V, P71H, H74R, M77I
notes: Del 1-8
B46: 3′F1 PR4 (designed binder)
chain: B5 chain with L69V, G70A, P71Q, N72D, D73G, E75F, M77Y
notes: Del 1-8
B47: 3′F12 PR4 (designed binder)
chain: B5 chain with G70S, P71Q, N72T, M77L
notes: Del 1-8
B48: B11 (designed binder)
chain: B5 chain with L69V, G70E, P71R, D73G, H74R, M77K
notes: 10Fn3 clone, Del 1-8
B49: F12 (designed binder)
chain: B5 chain with L69D, P71R, D73G
notes: 10Fn3 clone, Del 1-8
B50: G1 (designed binder)
chain: B5 chain with L69E, P71R, D73G, H74R, T78V
notes: 10Fn3 clone, Del 1-8

Target: T1, human vascular endothelial growth factor receptor-2 Fc chimera (KDR-Fc) (human, UniProt P35968 20-764)
T1 construct: range 1-764; also called human VEGFR-2; VEGF-R2-Fc; not shown: human IgG1 Fc
Assay: radioactive equilibrium binding, 1 nM KDR-Fc
Description: (§1) To prepare ³⁵S-labeled binding proteins for analysis, mRNA was prepared as described above for RNA-protein fusion production but the linker ligation step was omitted. The mRNA was expressed using rabbit reticulocyte lysate translation kit (Ambion) in the presence of ³⁵S-labeled Met at 30° C. for 1 hour. Expressed protein was purified on M2-agarose Flag beads (Sigma) as described above. This procedure produced the encoded protein without the nucleic acid tail. In a direct binding assay, VEGF-R2-Fc fusions in concentrations ranging from 0 to 200 nM were added to a constant concentration of the purified protein (0.2 or 0.5 nM) and incubated at 30° C. for 1 hour in buffer B. The receptor-binder complexes were captured using Protein A magnetic beads for another 10 minutes at room temperature using a Kingfisher™ The beads were washed with six reaction volumes of buffer B. The protein was eluted from the beads with 100 μL of 0.1 M KOH. […] of the reaction mixture and elution were dried onto a LumaPlate-96 (Packard) and the amount of ³⁵S on the plate was measured using a TopCount NXT instrument (Packard). The amount of fibronectin-based scaffold protein bound to the target was estimated as a percent of radioactivity eluted from Protein A magnetic beads compare to radioactivity in the reaction mixture. Nonspecific binding of fibronectin-based scaffold proteins to the beads was determined by measuring binding in the absence of KDR-Fc and represented less than 1-2% of the input. Specific binding was obtained through subtraction of nonspecific binding from total binding. Data was analyzed using the GraphPad Prizm software (GraphPad Software, Inc, San Diego, Calif.), fitted using a one site, non-linear binding equation.
T1 sequence (P35968 20-764 limits assumed, change not shown, form in doubt): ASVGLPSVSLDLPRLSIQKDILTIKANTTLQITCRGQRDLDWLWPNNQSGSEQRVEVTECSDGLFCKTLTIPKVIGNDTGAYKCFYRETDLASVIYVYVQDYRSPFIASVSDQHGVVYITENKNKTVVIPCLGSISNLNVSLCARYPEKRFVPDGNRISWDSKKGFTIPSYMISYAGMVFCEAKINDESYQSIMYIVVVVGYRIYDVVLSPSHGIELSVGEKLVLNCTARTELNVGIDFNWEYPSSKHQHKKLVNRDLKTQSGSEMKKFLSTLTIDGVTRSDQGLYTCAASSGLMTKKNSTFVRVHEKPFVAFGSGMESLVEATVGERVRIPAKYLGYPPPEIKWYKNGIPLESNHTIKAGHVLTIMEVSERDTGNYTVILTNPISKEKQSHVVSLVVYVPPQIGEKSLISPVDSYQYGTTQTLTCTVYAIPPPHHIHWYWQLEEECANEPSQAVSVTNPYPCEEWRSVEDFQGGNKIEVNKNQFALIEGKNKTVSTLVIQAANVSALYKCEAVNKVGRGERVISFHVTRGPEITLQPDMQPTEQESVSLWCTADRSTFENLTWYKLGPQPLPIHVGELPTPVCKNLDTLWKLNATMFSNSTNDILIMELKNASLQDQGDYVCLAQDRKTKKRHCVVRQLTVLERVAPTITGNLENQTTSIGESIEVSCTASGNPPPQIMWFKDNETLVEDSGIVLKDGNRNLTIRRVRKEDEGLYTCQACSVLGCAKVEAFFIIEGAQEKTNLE

Binding to 1 nM KDR, % | Binder
22% | B1
22% | B2
16% | B3
17% | B4
29% | B5
27% | B6
15% | B7
19% | B8
16% | B9
30% | B10
44% | B11
15% | B12
18% | B13
27% | B14
30% | B15
17% | B16
17% | B17
19% | B18
21% | B19
18% | B20
36% | B21
23% | B22
15% | B23
41% | B24

Binding to 1 nM KDR, % | Binder
29% | B25
24% | B26
32% | B27
29% | B28
19% | B29
22% | B30
16% | B31
14% | B32
31% | B33
24% | B34
20% | B35
14% | B36
25% | B37
14% | B38
39% | B39
17% | B40
37% | B41
16% | B42
42% | B43
26% | B44
20% | B45
31% | B46
17% | B47

Target: T2, human vascular endothelial growth factor receptor-2 Fc chimera (KDR-Fc) (human, UniProt P35968 20-764)
T2 construct: range 1-764; also called human VEGFR-2; not shown: human IgG1 Fc
Assay: radioactive equilibrium binding assay, 1 nM KDR-Fc, % of input bound
Description: as §1
T2 sequence (P35968 20-764 limits assumed, change not shown, form in doubt): as above

Binding to 1 nM KDR, % | Binder
29% | B48
17% | B49
22% | B50
